Test [1] has as its target T1, human SIRPa v1 expressed by blood monocytes or monocyte-derived cells (V1/V1 donors) (human, UniProt P78324 31-504).
T1 construct: donors were typed on exon 3; also called variant 1
The test is described as follows: FACS competition on human monocytes of V1/V1 donors; blocked ligand: biotinylated CD47Fc, revealed with streptavidin-PE. Here is the method:
(§1) METHOD: Human monocytes (purified by elutriation from human PBMC at DTC platform, Nantes, and frozen in DMSO at 10M/ml at −80° C. or liquid nitrogen) were thawed in 40 mL complete RPMI medium. Then immediately centrifuged at 1000 rpm during 10 minCells are resuspended in 10 mL of RPMI medium and counted on Malassez cell. Frozen human monocytes are thawed, diluted samples are added and biotinylated CD47Fc is added afterwards. […] The following protocol was applied: —Put 100,000 human monocytes per well on V-bottom P96 plate; —Centrifuge 1 min at 2500 rpm and empty wells by flicking the plate; —Wash cells 2 times with 200 μL PSE (Centrifuge 1 min at 2500 rpm and empty wells); —Prepare 8 dilutions of the sample beginning with 10 μg/mL (concentrated 2×, final concentration 5 μg/mL) and diluting by steps of 3; —Add 12.5 μL of sample/well on cells and mix; —Incubate 15 min on ice; —Prepare CD47Fc biotinylated solution concentrated 2×, determined in function of paragraph and add 12.5 μL of this solution/well on cells and mix.—Incubate 30 min on ice; —Add 175 μL PSE/w-Centrifuge 1 min at 2500 rpm and empty wells; —Wash cells 2 times with 200 μL PSE (Centrifuge 1 min at 2500 rpm and empty wells). An intermediate concentration is chosen for CD47Fc biotinylated. Here, 5 μg/mL CD47Fc biotinylated are took for the antagonist test. […]

Test [2] addresses T2, human SIRPa v2 expressed by blood monocytes (V2/V2 donors) (human, UniProt P78324 31-504).
T2 construct: also called variant 2; V2 protein
Put plainly: FACS competition on human monocytes of V2/V2 donors; blocked ligand: biotinylated CD47Fc, revealed with streptavidin-PE. Here is the method:
as §1

For test [3], the target named is T3, SIRPa V7 (SNP14 + ?) recombinant protein, extracellular domain fused with mouse Fc from IgG2a (human; mouse, UniProt P78324 31-373).
T3 construct: not shown: mouse Fc from IgG2a
The test is described as follows: ELISA on immobilised SIRPa variant-mouse Fc, donkey anti-human IgG peroxidase, TMB 450 nm; given as ED50. The protocol:
(§2) FIG. 4. SIRPa variants binding study using anti-human SIRPa v1 antibody and Kwar antibody by Elisa. Assessment of the binding by ELISA on immobilized SIRPa mutated variants (SIRPa from v1 to v8, see Table 2 in example 1) linked to the mouse Fc domain. Anti-human SIRPa v1 antibody and Kwar antibody (known to bind both SIRPa v1 and SIRPa v2) were compared for their ability to bind the different SIRPa mutated variants.
(§3) Method: The binding activity of the anti-SIRPa antibodies was assessed by ELISA. For the ELISA assay, the in-house anti-human SIRPa v1 antibody and Kwar antibody were tested on 8 different mutated hSIRPa (SIRPA v1 to v8; see table 2). The different variants of mutated hSIRPa (SIRPa v1 to v8) were immobilized on plastic at 0.5 μg/ml in carbonate buffer (pH9.2) and the purified antibody was added to measure binding.
(In an ELISA, binding on a coated surface is turned into a signal by an enzyme label.)

The target in test [4] is T4, SIRPa V3 (SNP1 + 2 + 3 + 4 + 5 + 6) recombinant protein, extracellular domain fused with mouse Fc from IgG2a (human; mouse, UniProt P78324 31-373).
T4 construct: SNP3 (51 A) is silent; not shown: mouse Fc from IgG2a
T4 chain: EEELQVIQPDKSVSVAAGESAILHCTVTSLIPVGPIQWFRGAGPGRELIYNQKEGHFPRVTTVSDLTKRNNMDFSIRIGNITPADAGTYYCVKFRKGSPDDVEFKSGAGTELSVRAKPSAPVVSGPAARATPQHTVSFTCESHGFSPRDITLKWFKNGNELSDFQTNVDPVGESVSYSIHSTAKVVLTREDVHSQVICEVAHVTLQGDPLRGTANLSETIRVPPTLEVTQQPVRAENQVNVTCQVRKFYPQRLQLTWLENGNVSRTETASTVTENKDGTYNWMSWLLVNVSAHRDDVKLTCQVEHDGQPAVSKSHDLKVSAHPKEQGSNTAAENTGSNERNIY
The test is described as above. Here is the method:
as §2, §3

In test [5] the target is T5, SIRPa V6 (SNP12 + 13) recombinant protein, extracellular domain fused with mouse Fc from IgG2a (human; mouse, UniProt P78324 31-373).
T5 construct: SNP13 is printed as 101 N without a change; not shown: mouse Fc from IgG2a
The description is as above. Here is the method:
as §2, §3

Test [6] deals with T6, SIRPa V1 recombinant protein (extracellular domain fused with mouse Fc from IgG2a) (human; mouse, UniProt P78324 31-373).
T6 construct: not shown: mouse Fc from IgG2a
The description is as above. The protocol: as §2, §3

Test [7] has as its target T7, SIRPa V5 (SNP9 + 10 + 11) recombinant protein, extracellular domain fused with mouse Fc from IgG2a (human; mouse, UniProt P78324 31-373).
T7 construct: SNP11 (97 T) is silent; not shown: mouse Fc from IgG2a
Described as above. The protocol:
as §2, §3

Test [8] has as its target T8, SIRPa V4 (SNP8) recombinant protein, extracellular domain fused with mouse Fc from IgG2a (human; mouse, UniProt P78324 31-373).
T8 construct: not shown: mouse Fc from IgG2a
The test is described as above. Here is the method: as §2, §3

Here are results for 1 molecule from patent publication US20210040206A1 (OSE IMMUNOTHERAPEUTICS, published 2021).

T1 sequence (P78324 31-504 limits assumed): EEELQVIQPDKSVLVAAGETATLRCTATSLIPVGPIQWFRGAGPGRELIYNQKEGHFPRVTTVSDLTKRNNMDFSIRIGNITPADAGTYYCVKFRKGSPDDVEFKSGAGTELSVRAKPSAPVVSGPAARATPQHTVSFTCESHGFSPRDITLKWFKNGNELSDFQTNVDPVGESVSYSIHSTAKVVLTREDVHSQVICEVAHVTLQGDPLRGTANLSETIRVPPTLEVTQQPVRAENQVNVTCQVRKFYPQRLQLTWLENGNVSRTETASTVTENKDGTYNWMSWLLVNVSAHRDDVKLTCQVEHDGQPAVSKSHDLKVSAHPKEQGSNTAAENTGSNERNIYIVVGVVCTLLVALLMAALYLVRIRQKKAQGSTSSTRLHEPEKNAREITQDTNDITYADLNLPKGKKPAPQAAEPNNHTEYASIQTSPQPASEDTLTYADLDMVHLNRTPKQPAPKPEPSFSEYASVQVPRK

B1: in-house anti-human SIRPa v1 antibody (antibody, human IgG4, V domains shown)
VH: EVQLVQSGAEVKKPGESLRISCKASGYSFTSYWVHWVRQMPGKGLEWMGNIDPSDSDTHYSPSFQGHVTLSVDKSISTAYLQLSSLKASDTAMYYCVRGGTGTLAYFAYWGQGTLVTVSS
VL: DVVMTQSPLSLPVTLGQPASISCRSSQSLVHSYGNTYLYWFQQRPGQSPRLLIYRVSNRFSGVPDRFSGSGSGTDFTLKISRVEAEDVGVYYCFQGTHVPYTFGGGTKVEIK
notes: also called in-house anti-SIRPa v1 antibody; in-house antibody
Take B1: the “IC50 (read off the curve)” value in test [1] was approximately 90 ng/mL; in test [2] it was approximately 200 ng/mL. For the same molecule, the half-maximal effective concentration (EC50) came to 0.54 ng/mL in test [3]; 0.99 ng/mL in test [4]; 0.72 ng/mL in test [5]; 0.78 ng/mL in test [6]; 0.63 ng/mL in test [7]; 0.71 ng/mL in test [8].

The EC50 is the concentration needed to bring the measured effect to its halfway point.
